# Data: patent US20190083615A1 (Merck Sharp & Dohme, published 2019)
# T1: human LAG3 (Lymphocyte Activation Gene-3) expressed on cells (human, UniProt P18627 23-525)
# T1 sequence: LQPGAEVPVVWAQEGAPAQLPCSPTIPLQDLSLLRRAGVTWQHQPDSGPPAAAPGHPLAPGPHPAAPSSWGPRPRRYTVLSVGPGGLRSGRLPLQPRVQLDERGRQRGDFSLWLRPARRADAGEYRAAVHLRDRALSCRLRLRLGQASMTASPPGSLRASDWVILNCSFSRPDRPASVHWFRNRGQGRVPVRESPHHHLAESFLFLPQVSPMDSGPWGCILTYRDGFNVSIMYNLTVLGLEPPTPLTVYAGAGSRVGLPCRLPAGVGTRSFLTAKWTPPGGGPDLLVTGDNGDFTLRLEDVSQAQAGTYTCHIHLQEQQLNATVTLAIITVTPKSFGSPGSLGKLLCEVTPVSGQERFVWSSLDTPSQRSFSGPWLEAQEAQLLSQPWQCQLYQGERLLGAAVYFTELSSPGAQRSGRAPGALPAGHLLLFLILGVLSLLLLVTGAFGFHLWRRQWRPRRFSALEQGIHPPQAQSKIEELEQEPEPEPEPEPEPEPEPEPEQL
# B1: Ab6: humanized light chain 45AGX Humanized x[LAG3_H] mAb (LB145.22D2.E1.D1 (VL3)) Kappa (PX) and humanized heavy chain 73AHD Humanized x[LAG3_H] mAb … (antibody)
# heavy: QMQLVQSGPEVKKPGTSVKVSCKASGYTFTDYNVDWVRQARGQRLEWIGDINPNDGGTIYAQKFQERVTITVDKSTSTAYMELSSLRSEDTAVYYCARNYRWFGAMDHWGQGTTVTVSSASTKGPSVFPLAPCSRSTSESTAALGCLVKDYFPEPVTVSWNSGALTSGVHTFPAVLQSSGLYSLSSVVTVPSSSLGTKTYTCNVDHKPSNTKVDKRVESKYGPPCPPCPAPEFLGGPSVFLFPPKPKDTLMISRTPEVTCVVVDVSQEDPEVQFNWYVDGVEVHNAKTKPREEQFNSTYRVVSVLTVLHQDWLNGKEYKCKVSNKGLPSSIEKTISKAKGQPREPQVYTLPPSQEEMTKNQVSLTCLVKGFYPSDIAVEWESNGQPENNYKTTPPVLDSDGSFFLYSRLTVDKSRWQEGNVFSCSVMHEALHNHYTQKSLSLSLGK
# light: DIVMTQTPLSLSVTPGQPASISCKASQSLDYEGDSDMNWYLQKPGQPPQLLIYGASNLESGVPDRFSGSGSGTDFTLKISRVEAEDVGVYYCQQSTEDPRTFGGGTKVEIKRTVAAPSVFIFPPSDEQLKSGTASVVCLLNNFYPREAKVQWKVDNALQSGNSQESVTEQDSKDSTYSLSSTLTLSKADYEKHKVYACEVTHQGLSSPVTKSFNRGEC
# notes: Humanized 22D2 N55D, IgG4 S228P/kappa; also called Hu22D2 VH6/VL3 N55D (Ab 6); hu22D2 VH6/VL3 N55D
# Biological target: T1, human LAG3 (Lymphocyte Activation …)
# Assay: cell-based or functional assay
binder,measurement,value
B1,"IL-2 production by SEB-stimulated PBMC in combination with anti-PD1, fold over anti-PD-1 alone plus isotype control",1.45 fold
same,"IL-2 production by SEB-stimulated PBMC, fold over isotype control",1.54 fold
